Assay results taken from article PMC6098157.

Target: TIR1 (transport inhibitor response 1), codon-optimized rice TIR1 (rice)

- GFP-PCNA left at 22 hpf in zebrafish retinal neuroepithelium cells expressing TIR1 and mAID-nanobody, with 0.5 mM IAA as the bridging auxin (% of original GFP-PCNA levels): < 20
- GFP-PCNA left at 22 hpf in zebrafish retinal neuroepithelium cells expressing TIR1 and mAID-nanobody, with 0.5 mM NAA as the bridging auxin (% of original GFP-PCNA levels): 12
B1: mAID^K→R-vhhGFP4^K→R (lysine-less mAID-nanobody) (VHH)
chain: ACPRDPARPPARAQVVGWPPVRSYRRNVMVSCQRSSGGPEAAAFVRVSMDGAPYLRRIDLRMYRMDQVQLVESGGALVQPGGSLRLSCAASGFPVNRYSMRWYRQAPGREREWVAGMSSAGDRSSYEDSVRGRFTISRDDARNTVYLQMNSLRPEDTAVYYCNVNVGFEYWGQGTQVTVSS
